The source of these data is US20170258835A1.

The target of one test is CD19 (UniProt P15391). Briefly: cell-based or functional assay.
The target in another test is EGFRviii (UniProt P00533).
The target of the next test is HLA-A2/NY-ESO-1. Description: cell-based or functional assay.

Chain of CD19 (P15391 20-556 limits assumed): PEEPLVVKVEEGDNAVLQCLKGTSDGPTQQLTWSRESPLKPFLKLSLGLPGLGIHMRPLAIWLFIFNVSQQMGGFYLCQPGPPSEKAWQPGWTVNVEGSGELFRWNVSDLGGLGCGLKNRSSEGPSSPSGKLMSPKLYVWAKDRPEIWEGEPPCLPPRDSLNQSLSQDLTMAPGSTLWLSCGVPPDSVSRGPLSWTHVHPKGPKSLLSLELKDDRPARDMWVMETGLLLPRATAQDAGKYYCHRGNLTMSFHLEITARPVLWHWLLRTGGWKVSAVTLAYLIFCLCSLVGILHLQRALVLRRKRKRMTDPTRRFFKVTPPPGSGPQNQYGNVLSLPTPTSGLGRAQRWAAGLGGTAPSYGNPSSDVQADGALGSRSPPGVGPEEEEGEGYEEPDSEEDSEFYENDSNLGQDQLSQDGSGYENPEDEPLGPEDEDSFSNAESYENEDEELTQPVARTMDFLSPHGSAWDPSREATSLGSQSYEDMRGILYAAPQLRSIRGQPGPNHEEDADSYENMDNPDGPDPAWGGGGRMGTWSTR

In the test with CD19, “Blinatumomab (secreted by T cells electroporated with Blinatumomab Bis-RNA) (bispecific antibody)” yielded a CD107a up-regulation, stimulated with K562-CD19 of 81% and an IFN-gamma ELISA; lowest dose of CD19 mRNA electroporated into K562 that was recognized of 0.001 µg.

In the test with EGFRviii, MR1-BBZ displayed a CD107a+ share of CD8+ T cells after stimulation with K562-EGFRvIII of 51.8%.

For the substance NY-ESO-1 (1G4) TCR alpha and beta, the CD8/CD107a double positive cells, stimulated with Nalm6-ESO (Affi-epsilon co-electroporated, EP3 to EP6) with HLA-A2/NY-ESO-1 fell in the range of 49.5 to 53.3%.
